Measured values: PMC2194227

Legend:
[1] = molecular target: WT mCD1d cytoplasmic tail peptide (…) (mouse); test: SPR
[2] = molecular target: mutant mCD1d cytoplasmic tail peptide (…), tyrosine substituted for alanine (mouse); test: SPR

Kd [1]: 0.54 µM
Kd [2]: 2.63 µM
Substance: adaptor protein complex 3 (AP-3) purified from pig brain cytosol
